Results from FireProtDB (doi:10.1006/jmbi.1999.2582).
Several values for one entry are separate records, joined by “and”; a condition that tells them apart may be missing. Equal entries are not always repeated.

Details: Myxococcus xanthus, Mops-NaOH 25 mM, CaCl2 3 mM, transition: 3, reversible: Yes, whole UniProt chain shown

B1: Development-specific protein S wild type, P02966 (protein)
chain: MANITVFYNEDFQGKQVDLPPGNYTRAQLAALGIENNTISSVKVPPGVKAILYQNDGFAGDQIEVVANAEELGPLNNNVSSIRVISVPVQPRARFFYKEQFDGKEVDLPPGQYTQAELERYGIDNNTISSVKPQGLAVVLFKNDNFSGDTLPVNSDAPTLGAMNNNTSSIRIS
- denaturant m value (pH 2, 20 °C, Urea, Absorbance): 2.87 kcal/mol/M
- denaturant midpoint (higher = more stable) (pH 2, 20 °C, Urea, Absorbance): 2.2 M
- unfolding free energy (pH 2, 20 °C, Urea, Absorbance): 6.21 kcal/mol
- Tm (pH 2, Thermal, CD): 52 °C
- denaturant m value (pH 7, 20 °C, Urea, Absorbance): 1.2 kcal/mol/M and 1.43 kcal/mol/M and 1.91 kcal/mol/M
- unfolding free energy (pH 7, 20 °C, Urea, Absorbance): 5.02 kcal/mol and 7.41 kcal/mol and 3.59 kcal/mol
